This note sets out measurements from patent US20250092130A1 (INNATE PHARMA, published 2025).

Assay [1] addresses KIR3DL2 mutant 11 (P179T, S181T) (human, UniProt P43630 22-455). Nature of the assay: binding to cells transfected with KIR3DL2 mutants.
The target of assay [2] is KIR3DL2 mutant 11A1 (V178A, H180S) (human, UniProt P43630 22-455). Nature of the assay: binding to cells transfected with KIR3DL2 mutants.
Assay [3] deals with KIR3DL2 mutant M11A4 (E130S, H131S, R145S) (human, UniProt P43630 22-455). Nature of the assay: binding to cells transfected with KIR3DL2 mutants.
The target of assay [4] is T1, human KIR3DL2 (wild-type, allele *002) (human, UniProt P43630 22-455).
T1 construct: also called CD158k; WTaKIR3DL2
Nature of the assay: flow cytometry on HUT78, COU-L and HEK-293T/KIR3DL2 Domain 0-eGFP cells; Biacore on rec KIR3DL2 chips. On the procedure: Antibodies which bind KIR3DL2 but not closely-related KIR3DL1 were generated by immunizing mice with recombinant KIR3DL2-Fc fusion protein. Supernatants (SN) of the growing hybridomas were tested by flow cytometry on Sézary Syndrome cell lines (HUT78, COU-L) and HEK-293T/KIR3DL2 Domain 0—eGFP. Potentially interesting hybridomas selected from the initial screening were cloned by limiting dilution techniques in 96-well plates. The secondary screen involved selection of hybridomas of interest by testing supernatants of the subclones by flow cytometry on HUT78, COU-L, HEK-293T/KIR3DL1 Domain 0—eGFP and HEK-293T/KIR3DL2 Domain 0—eGFP. Positive subclones were injected into mice to produce ascitis and antibodies of interest were purified before being tested in a Biacore assay using rec KIR3DL2 chips, followed by various assay formats based on binding to human KIR3DL2-expressing cells.
(In general: In flow cytometry, cells or beads pass a laser one at a time.)

Assay [5] deals with T2, KIR3DL2 mutant having I60N and G62S substitutions (human, UniProt P43630 22-455).
T2 construct: It says 'mutants'; also called mutants having 160N and G62S substitutions
Nature of the assay: binding to KIR3DL2 mutants.

Assay [6] concerns the target T1, human KIR3DL2 (wild-type, allele *002). Nature of the assay: immunohistochemistry (DAB) on frozen sections of RAJI-KIR3DL2 tumors and cell lines. The procedure:
Tumor biopsies from RAJI-KIR3DL2 models and RAJI-KIR3DL2 cell lines were obtained and staining was performed on frozen samples using AZ158 antibody (see WO2010/081890) or antibodies 12B11 (see Example 1). KIR3DL2 was stained with anti-KIR3DL2 antibody by DAB chromogenic detection according to standard protocols, adapted for immunostaining with BenchMark XT (Ventana, Roche). For all staining control isotype (mIgG1) and control DAB were performed.

Chain of KIR3DL2 mutant 11A1 (V178A, H180S) (P43630 other isoform, or with tags, fused parts or gaps V178A H180S V178A H180S): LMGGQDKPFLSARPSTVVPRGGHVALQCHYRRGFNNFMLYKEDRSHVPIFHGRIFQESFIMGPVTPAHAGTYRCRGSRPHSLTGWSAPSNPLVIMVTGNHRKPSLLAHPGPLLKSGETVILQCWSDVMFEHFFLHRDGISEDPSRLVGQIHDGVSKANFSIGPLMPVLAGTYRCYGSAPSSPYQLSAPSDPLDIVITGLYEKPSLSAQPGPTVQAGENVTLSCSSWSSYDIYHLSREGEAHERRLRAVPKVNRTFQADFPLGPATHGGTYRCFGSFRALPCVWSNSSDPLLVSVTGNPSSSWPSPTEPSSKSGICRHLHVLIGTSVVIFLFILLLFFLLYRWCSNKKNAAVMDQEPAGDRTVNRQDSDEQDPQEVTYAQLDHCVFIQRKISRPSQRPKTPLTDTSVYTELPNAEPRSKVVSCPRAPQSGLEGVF
Chain of KIR3DL2 mutant 11 (P179T, S181T) (P43630 other isoform, or with tags, fused parts or gaps P179T S181T P179T S181T): as the sequence (P43630 other isoform, or with tags, fused parts or gaps V178A H180S V178A H180S) above, with A178V, P179T, S180H, S181T counted along it
T1 sequence (P43630 22-455 E158D): as the sequence (P43630 other isoform, or with tags, fused parts or gaps V178A H180S V178A H180S) above, with A178V, S180H counted along it
T2 sequence (P43630 other isoform, or with tags, fused parts or gaps I60N G62S I60N G62S): as the sequence (P43630 other isoform, or with tags, fused parts or gaps V178A H180S V178A H180S) above, with I60N, G62S, A178V, S180H counted along it
Chain of KIR3DL2 mutant M11A4 (E130S, H131S, R145S) (P43630 other isoform, or with tags, fused parts or gaps E130S H131S R145S E130S H131S R145S): as the sequence (P43630 other isoform, or with tags, fused parts or gaps V178A H180S V178A H180S) above, with E130S, H131S, R145S, A178V, S180H counted along it

B1: antibody 19H12 (antibody, IgG2b, V domains shown)
VH: QIQLVQSGPELKKPGETVKISCKASGYTFTNFGMNWVKQAPGKGLKWMGWINTYTGEPTYADDFKGRFAFSLETSASTAYLQINNLKNEDMATYFCARNGNFGYYFDYWGQGTTLTVSS
VL: DVLMTQTPLSLPVSLGDQASFSCRSSQNIVHSNGNTYLEWYLQKPGQSPSLLIYKVSNRFSGVPDRFSGSGSGTDFTLKITRVEAEDLGVYYCFQGSHVPFTFGSGTKLEIK
notes: Mouse monoclonal from a hybridoma; also called anti-KIR3DL2 19H12
For B1, the binding result in assay [1] is listed as “no binding”; in assay [2], “no binding”; in assay [3], “no binding”; in assay [4] it was “binds”.

B2: antibody 2B12 (antibody, V domains shown)
VH: QIQLVQSGPELKKPGETVRISCKASGYTFTTAGMQWVQKTPGKGLKWIGWINSHSGVPKYAEDFKGRFAFSLETSASTAYLQISTLKNEDTATYFCARGGDEGVMDYWGQGTSVTVS
VL: DIVMTQSHKFMSTSLGDRVSFTCKASQDVSTAVAWYQQKPGQSPKLLIYWTSTRHTGVPDRFTGSGSGTDYTLTISSVQAEDLALYYCQQHYSTPWTFGGGTKLEIK
In the case of B2, the binding result in assay [5] is “no binding”.

B3: antibody 12B11 (antibody, IgG1, V domains shown)
VH: QLVQSGPELKNPGETVKISCKASGYTFTNYGMNWVKQAPGKGLKWMGWINTYTGEPTYADDFKGRFAFSLETSASTAYLQINNLKNEDTATYFCAHGPWLAYWGQGTLVTVS
VL: DIKMTQSPSSMYASLGERVTITCKASQDINVYLSWFQQKPGKSPKTLIYRAIRLVDGVPSRFSGSGSGQDYSLTISSLDYEDMGIYYCLQYDELPYTFGGGTKLEIE
notes: Mouse monoclonal
Regarding B3, the binding result in assay [1] is recorded as “no binding”; in assay [2] it was “no binding”; in assay [6], “binds”.
